Results reported in the supplement of paper PMC6757056.
± gives the standard deviation of the averaged measurements.

B1: library; a variant is named by its letters at N, in order (parent)
chain: GCUGUCACCGGUGCUUGGUACGUUAUAUUCAGCCGGUCUGAUGAGUCUNNNNNNAGACGAAACAGC

Assays:
[1] = variants of: B1; experiment: normalized RNA/DNA level without ligand (relative to sTRSVctl = 100) (log10 (% of sTRSVctl)); HEK293T overexpressing SLC46A1; higher = less ribozyme self-cleavage, higher mRNA level; conditions: without (6R,S)-folinic acid; ligand present: no
How it was run: (§1)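 For each 6-well well, 4 µg of library plasmid encoding mCherry-linked ribozyme switches, or eGFP-linked ones in some ligand experiments, was transfected into HEK293T. Any ligand was added 1 h before transfection, and RNA was extracted with EDTA 72 h after it, then reverse-transcribed, amplified, barcoded and sequenced. RNA level was obtained by dividing RNA reads by DNA reads, normalizing to a spiked-in non-cleaving sequence or to the top sequences, then scaling and log-transforming. The top set was 25 sequences, scaling was ×100 with log10, and ≥100 DNA reads were required.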

[2] = variants of: B1; experiment: normalized RNA/DNA level with ligand (relative to sTRSVctl = 100) (log10 (% of sTRSVctl)); HEK293T overexpressing SLC46A1; ligand concentration (+) RNA-Seq: 6 mM; higher = less ribozyme self-cleavage, higher mRNA level; conditions: with (6R,S)-folinic acid; ligand present: yes
How it was run: as §1

GCGACG
normalized RNA/DNA level without ligand (log10) [1]: 1.989 ± 0.017
normalized RNA/DNA level with ligand (log10) [2]: 2.02 ± 0.045

GCGACC
normalized RNA/DNA level without ligand (log10) [1]: 2.029 ± 0.0059
normalized RNA/DNA level with ligand (log10) [2]: 2.07 ± 0.037

GCGACU
normalized RNA/DNA level without ligand (log10) [1]: 2.051 ± 0.0076
normalized RNA/DNA level with ligand (log10) [2]: 2.06 ± 0.04

GCGACA
normalized RNA/DNA level without ligand (log10) [1]: 2.024 ± 0.015
normalized RNA/DNA level with ligand (log10) [2]: 2.05 ± 0.03

UCGACA
normalized RNA/DNA level without ligand (log10) [1]: 1.999 ± 0.0076
normalized RNA/DNA level with ligand (log10) [2]: 2.022 ± 0.0062

UCGACG
normalized RNA/DNA level without ligand (log10) [1]: 1.867 ± 0.017
normalized RNA/DNA level with ligand (log10) [2]: 1.9974 ± 0.0011

UCGACC
normalized RNA/DNA level without ligand (log10) [1]: 2.052 ± 0.0052
normalized RNA/DNA level with ligand (log10) [2]: 2.04 ± 0.036

CCGCAG
normalized RNA/DNA level without ligand (log10) [1]: 1.97 ± 0.004
normalized RNA/DNA level with ligand (log10) [2]: 1.99 ± 0.066

CCGCAU
normalized RNA/DNA level without ligand (log10) [1]: 2 ± 0.0024
normalized RNA/DNA level with ligand (log10) [2]: 2.017 ± 0.018

CCGCAA
normalized RNA/DNA level without ligand (log10) [1]: 1.986 ± 0.018
normalized RNA/DNA level with ligand (log10) [2]: 2 ± 0.042

CCGCAC
normalized RNA/DNA level without ligand (log10) [1]: 1.997 ± 0.0034
normalized RNA/DNA level with ligand (log10) [2]: 1.99 ± 0.029

ACGAUG
normalized RNA/DNA level without ligand (log10) [1]: 1.925 ± 0.016
normalized RNA/DNA level with ligand (log10) [2]: 2.03 ± 0.031

ACGAUU
normalized RNA/DNA level without ligand (log10) [1]: 2.0259 ± 0.00039
normalized RNA/DNA level with ligand (log10) [2]: 2.03 ± 0.026

ACGAUA
normalized RNA/DNA level without ligand (log10) [1]: 1.971 ± 0.0039
normalized RNA/DNA level with ligand (log10) [2]: 2.02 ± 0.036

CCGAGA
normalized RNA/DNA level without ligand (log10) [1]: 1.988 ± 0.01
normalized RNA/DNA level with ligand (log10) [2]: 2.011 ± 0.0034

CCGAGU
normalized RNA/DNA level without ligand (log10) [1]: 2.029 ± 0.014
normalized RNA/DNA level with ligand (log10) [2]: 2.03 ± 0.032

CCGAGG
normalized RNA/DNA level without ligand (log10) [1]: 2.011 ± 0.006
normalized RNA/DNA level with ligand (log10) [2]: 2.01 ± 0.028

ACCUGA
normalized RNA/DNA level without ligand (log10) [1]: 1.999 ± 0.003
normalized RNA/DNA level with ligand (log10) [2]: 2.03 ± 0.029

ACCUGC
normalized RNA/DNA level without ligand (log10) [1]: 2.07 ± 0.016
normalized RNA/DNA level with ligand (log10) [2]: 2.04 ± 0.044

ACCUGU
normalized RNA/DNA level without ligand (log10) [1]: 2.01 ± 0.025
normalized RNA/DNA level with ligand (log10) [2]: 2 ± 0.024

ACCUGG
normalized RNA/DNA level without ligand (log10) [1]: 1.9783 ± 0.00064
normalized RNA/DNA level with ligand (log10) [2]: 2.04 ± 0.034

CCGCCA
normalized RNA/DNA level without ligand (log10) [1]: 2.0675 ± 0.0011
normalized RNA/DNA level with ligand (log10) [2]: 2.04 ± 0.035

CCGCCC
normalized RNA/DNA level without ligand (log10) [1]: 2.07 ± 0.025
normalized RNA/DNA level with ligand (log10) [2]: 2.04 ± 0.073

UCCUUA
normalized RNA/DNA level without ligand (log10) [1]: 2.015 ± 0.013
normalized RNA/DNA level with ligand (log10) [2]: 2.05 ± 0.0049

UCCUUU
normalized RNA/DNA level without ligand (log10) [1]: 2.07 ± 0.021
normalized RNA/DNA level with ligand (log10) [2]: 2.08 ± 0.032

UCCUUC
normalized RNA/DNA level without ligand (log10) [1]: 2.084 ± 0.002
normalized RNA/DNA level with ligand (log10) [2]: 2.05 ± 0.035

ACGAAU
normalized RNA/DNA level without ligand (log10) [1]: 1.95 ± 0.021
normalized RNA/DNA level with ligand (log10) [2]: 2 ± 0.035

ACGAAC
normalized RNA/DNA level without ligand (log10) [1]: 2.02 ± 0.021
normalized RNA/DNA level with ligand (log10) [2]: 2.03 ± 0.044

CCCUGA
normalized RNA/DNA level without ligand (log10) [1]: 2.088 ± 0.014
normalized RNA/DNA level with ligand (log10) [2]: 2.1 ± 0.051
